The values that follow come from patent US20080227700A1, “Compositions and Methods for Treatment of Protein Misfolding and Protein Aggregation Diseases” (priority 2004, published 2008).

Test [1] has as its target T1, porcine citrate synthase (CS) (Sus scrofa, UniProt P00889).
T1 construct: purchased
T1 sequence (P00889 28-464): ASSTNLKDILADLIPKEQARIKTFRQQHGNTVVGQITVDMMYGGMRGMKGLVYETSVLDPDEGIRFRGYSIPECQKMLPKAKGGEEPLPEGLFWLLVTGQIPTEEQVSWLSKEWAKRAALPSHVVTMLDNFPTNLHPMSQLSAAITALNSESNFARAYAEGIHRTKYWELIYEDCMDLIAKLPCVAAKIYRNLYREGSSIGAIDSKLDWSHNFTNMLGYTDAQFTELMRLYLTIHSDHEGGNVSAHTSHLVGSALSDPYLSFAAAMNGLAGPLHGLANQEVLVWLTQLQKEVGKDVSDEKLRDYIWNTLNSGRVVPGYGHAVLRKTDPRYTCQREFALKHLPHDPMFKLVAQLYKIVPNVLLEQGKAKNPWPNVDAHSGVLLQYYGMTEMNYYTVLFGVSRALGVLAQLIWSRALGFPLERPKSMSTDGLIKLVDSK
Put plainly: Protein pin array interaction with citrate synthase. Format: binding. The note with it: CS as target protein, unheated and pre-heated. The text has this: (§1) Synthesis of Pins, binding and detection of peptides binding to ligand proteins. The αB crystallin protein pin array was used to measure the interaction between peptides and chaperone target proteins including bovine βH crystallin, human γD crystallin, equine alcohol dehydrogenase (ADH) and porcine citrate synthase (CS) as described (FIG. 12). Ghosh and Clark, Protein Sci 14: 684-95, 2005.
(§2) Refer to the methods section for detailed protocols. The absorbance corresponding to the blue coloration in each well was measured at λ=450 nm and plotted against the amino acid sequence of the corresponding peptide in that well (FIGS. 13 and 14). Wells containing peptides that have strong interactions with target proteins are dark blue and wells containing peptides that have weak or no interaction with target proteins are light blue or clear.
(§3) The purity of the target proteins used in the pin array assays, bovine βH crystallin, human γD crystallin, equine alcohol dehydrogenase (ADH) and porcine citrate synthase (CS) were determined to be >90% by SDS-PAGE. In addition, primary antibodies for each target protein were specific to that target protein and consequently contaminating proteins that may bind to the peptides will not be detected. Eighty-four sequential and overlapping peptide fragments corresponding to residues 1-175 of human αB crystallin were synthesized employing a simultaneous peptide synthesis strategy developed by Geysen, called Multipin Peptide Synthesis (Mimotopes, San Diego, Calif.). Geysen, Southeast Asian J Trop Med Public Health 21: 523-33, 1990; Chin et al., J Org Chem 62: 538-539, 1997. Peptides were immobilized on derivatized polyethylene pins arranged in a microtiter ELISA plate format. Each peptide was eight amino acids in length and consecutive peptides were offset by two amino acids. All peptides were bound covalently to the surface of the plastic pins. The first peptide was […] for human αB crystallin.
(§4) Ghosh and Clark, Protein Sci 14: 684-95, 2005. […] The intensity of the blue color in the wells was measured at 450 nm using an ELISA plate-reader (BioTek, Winooski, Vt.). The intensity of the blue color (plotted on the X-axis) was a measure of the interaction between αB crystallin peptides (plotted on the Y-axis) and target proteins. To measure the effect of temperature on the interactions between interactive peptides and the target proteins, the target proteins were heated in a water-bath at 45° C. for fifteen minutes prior to use. Pin arrays are unable to differentiate between monomers, dimers or oligomers of target proteins that exist in solution. Instead, pin arrays are very sensitive detectors of interactions between individual peptides and the entire population (monomers, dimers or oligomers) of specific target proteins that may exist in solution under specific conditions. Each target protein was assayed two to five times. A single pin array was used for all experiments and no change in interactions was observed after more than thirty repetitions. The last three peptides of the protein pin array, 163REEKPAVT170, 165EKPAVTAA172, 167PAVTAAPK174, correspond to the epitope (163REEKPAVTAAPKK175) recognized by the primary antibody for human αB crystallin. A positive reaction is observed for these three peptides in the absence of human αB crystallin as the ligand due to direct binding of the anti-human αB crystallin antibody to these three peptides. The loss of efficiency for the pin array was measured using this assay. The loss of efficiency for the pin array was determined to be <5% by after more than 30 assays.
(§5) The Y-axis lists the amino acid sequences of the 8-mer peptides that are immobilized sequentially in a 96-well format. […]

Test [2] deals with T2, equine alcohol dehydrogenase (ADH) (Equus caballus, UniProt P00327).
T2 construct: purchased
T2 sequence (P00327 whole entry): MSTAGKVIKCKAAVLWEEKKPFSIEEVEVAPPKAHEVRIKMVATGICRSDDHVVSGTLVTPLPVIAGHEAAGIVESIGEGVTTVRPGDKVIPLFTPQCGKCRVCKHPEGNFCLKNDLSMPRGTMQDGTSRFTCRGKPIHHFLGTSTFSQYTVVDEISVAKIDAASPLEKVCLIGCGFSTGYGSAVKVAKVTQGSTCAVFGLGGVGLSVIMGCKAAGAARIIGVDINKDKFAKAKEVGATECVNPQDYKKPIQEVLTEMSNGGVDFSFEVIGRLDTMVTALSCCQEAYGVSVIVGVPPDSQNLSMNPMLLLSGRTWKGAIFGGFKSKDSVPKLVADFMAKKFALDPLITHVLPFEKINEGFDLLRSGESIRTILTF
Put plainly: Protein pin array interaction with alcohol dehydrogenase. Format: binding. The following applies: ADH as ligand, unheated and pre-heated.
Text: as §1, §2, §3, §4, §5

Another test concerns bovine βH crystallin. Put plainly: Protein pin array interaction with βH crystallin. Format: binding. The note with it: unheated βH crystallin; similar maxima with βH crystallin pre-heated at 45° C. for fifteen minutes.
Text: as §1, §2, §3, §4
(§6) The amino acid sequences of each 8-mer human αB crystallin peptide immobilized sequentially on 84 pins in a 96-well ELISA plate format are listed on the Y-axis. […]

For a further test, the target named is beta amyloid (Homo sapiens, UniProt P05067). The test is described as follows: αB crystallin protein pin array screened for binding to beta amyloid. The note with it: immobilized 8-mer peptide; absorption at 450 nm; assayed 2-5 times. An excerpt:
αB Crystallin peptides that bind the target protein beta-amyloid were identified by screening an αB crystallin protein pin array, which provides a systematic method for evaluating interactions between peptides corresponding to residues 1-175 of human αB crystallin and selected target proteins in a parallel and simultaneous manner.
Peptides were synthesized on derivatized polyethylene pins arranged in a microtiter plate format. Each peptide was 8 amino acids in length and consecutive peptides were offset by 2 amino acids. All peptides were covalently bonded to the surface plastic pins. The first immobilized peptide was 1MDIAIHHP8 and the last peptide was 168PAVTAAPK175 for the human αB crystallin.
After synthesis, the pins were pre-coated at room temperature with 2% Bovine Serum Albumin (BSA), 0.1% Tween-20 and 0.1% Sodium azide in 10 mM phosphate buffered saline pH 7.2 (PBS) for 1 hr, and washed three times for 10 mins each with 10 mM PBS. To screen for binding to the peptides, fixed concentrations of the target protein beta amyloid was dissolved in 10 mM PBS, containing 0.05% Tween-20, added to each well and incubated for 1 hr at room temperature. The pin array was washed three times for 10 mins each with 10 mM PBS, containing 0.05% Tween-20. Monoclonal or polyclonal primary antibodies for the target protein beta amyloid was diluted into PBS buffer, added to each well and incubated for 1 hr at room temperature. Subsequently, the pin array was washed three times for 10 mins each with 10 mM PBS containing 0.05% Tween-20. Anti-rabbit horse-radish peroxidase conjugate secondary antibodies was diluted into PBS buffer, added to each well and incubated for 1 hr at room temperature. The pin array was washed three times for 10 mins each with 10 mM PBS containing 0.05% Tween-20. A chromogenic substrate of horse-radish peroxidase 3,3′,5,5′-Tetramethylbenzidine (TMB) (Pharmingen, San Diego, Calif.) which is colorless was added, and the reaction was carried out for 45 min.
The reaction was stopped by adding 6N sulfuric acid, which changes the color from blue to yellow. The absorption at 450 nm was measured by an ELISA reader (BioTek, Winooski, Vt.).
The pin array was regenerated by sonication in a water bath (VWR Aquasonic, West Chester, Pa.) with 100 mM PBS, containing 1% Sodium dodecyl sulfate (SDS) and 0.1% 2-Mercaptoethanol @ 60° C. for 10 mins. Next, the pin array was rinsed three times in deionized water, preheated to 60° C. for 30 secs each time, and shaken in water preheated at 60° C. for 30 min. The pin array was then washed with methanol at 60° C. for 15 secs and air-dried and stored @−20° C. for future use. Each target protein was assayed 2-5 times against the human αB crystallin protein pin array peptides to verify the reproducibility of the results. Peptides numbered 5, 7, 8, 9, 13, 19, 22, 23, 24, 27, 35, 38, 45, 51, 52, 56, 57, 61, 66, 71, 72, and 79 in Table 2 reproducibly tested positive in the protein pin assay.

Test [3] deals with T3, γD crystallin (Homo sapiens, UniProt P07320).
T3 sequence (P07320 1-174): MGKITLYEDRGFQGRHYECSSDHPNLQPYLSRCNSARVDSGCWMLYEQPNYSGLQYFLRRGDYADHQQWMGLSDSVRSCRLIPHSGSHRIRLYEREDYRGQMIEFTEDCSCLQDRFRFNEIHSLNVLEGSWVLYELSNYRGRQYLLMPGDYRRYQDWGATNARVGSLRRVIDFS
Put plainly: Protein pin array interaction with γD crystallin. Format: binding. Further details: purchased. The note with it: unheated γD crystallin; similar peptide sequences with γD crystallin pre-heated at 45° C. for fifteen minutes.
Text: as §1, §2, §3, §4, §6

Another test concerns βL crystallin. Put plainly: Chaperone assay, thermal aggregation of βL crystallin. Format: biochemical. The note with it: light scattering at λ=340 nm; 1:10 target protein:peptide; comparison among five peptides. How it is done: Chaperone Assays. Chaperone assays of the five peptides were performed using previously established methods with minor modifications. Muchowski et al., J Mol Biol 289: 397-411, 1999. A 1:1 monomeric molar ratio of chaperone: target protein was determined to be the optimum ratio and all subsequent chaperone assays of the β3 mutants were performed in triplicate and at a 1:1 monomeric molar ratio of chaperone: target protein in a 96-well ELISA micro-titer plate. […] of the chaperone and βL crystallin were mixed in a total volume of 200 μL buffer (5 mM PBS, pH 7.0). Light scattering at λ=340 nm was measured using a Multiskan MCC/340 plate reader before heating (time=0). After the first reading, the plate was heated at 50° C. and readings were taken at fifteen minute intervals for one hour.
The ability of the peptides to suppress the thermal aggregation of βL crystallin was measured spectrophotometrically as light scattering at λ=340 nm from solutions containing 1:10 monomeric molar ratio of target protein: peptide.

Test [4] deals with T3, γD crystallin. The test is described as follows: γD crystallin ThioflavinT fluorescence (fibrillization of γD crystallin). Format: biochemical. The following applies: ThioflavinT fluorescence after 72 hrs; 1:1 γD crystallin:peptide; comparison among αB crystallin and five peptides. On the procedure: γD crystallin Thioflaviin T fluorescence. γD crystallin fibrils were formed in a similar way to that of γ crystalline. Meehan et al., J Biol Chem 279: 3413-3419, 2004. Peptides were dissolved to […] IN tfe AND DILUTED to 0.91 mM stock solutions in 10% TFE, pH 2.0.
3.5 mg of ThioflavinT was dissolved in 100 μL of 50 mM Glycine pH 8.5. A stock solution of 1 mg/ml (0.22 mM) Aβ was prepared. 20 μl Aβ, 5 μl chaperone, 2 μl ThioflavinT was mixed with 73 μL 10% TFE, pH 2.0. Fluorescence was read using a Beckman Coultier DTX 880 multimode detector. Samples were heated at 50° C. for 72 hours and fluorescence was read again.
The fibrillization of γD crystallin was measured as fluorescence of the fluorescent dye ThioflavinT from solutions containing 1:1 monomeric molar ratio of γD crystallin:peptide. In the absence of fibrils ThioflavinT had little or no fluorescence. The fluorescence of the ThioflavinT bound to γD crystallin fibrils in the absence of any other molecule after 72 hrs was set to 100%. […] Fibril formation=ΔfluorescenceγD crystallin (with chaperone)*100/ΔfluorescenceγD crystallin (without chaperone).

Consider LTITSSLS [Peptide 66], for which, in test [1], the “absorbance at λ=450 nm, interaction with CS” value (from here on “absorbance … with CS”) is recorded as “absorbance maxima”. Further, in test [2], the “absorbance at λ=450 nm, interaction with ADH” value (shortened to “absorbance … with ADH”) is listed as “Maximum absorbances”. Further, the “absorbance at λ=450 nm, interaction with βH crystallin” value (“absorbance … with βH crystallin” for short) in the test on bovine βH crystallin is recorded as “Maximum absorbances”. For the same sequence, the “protein pin assay result with target protein beta amyloid” value (from here on “protein pin assay result”) with beta amyloid is “positive”. Besides, the “absorbance at λ=450 nm, interaction with γD crystallin” value (shortened to “absorbance … with γD crystallin”) with γD crystallin [3] was “maximum absorbances”.

Turning to FSVNLDVK [Peptide 38], the “absorbance … with CS” value in test [1] is given as “absorbance maxima”. Besides, the “absorbance … with ADH” value in test [2] is “Maximum absorbances”. In addition, the “absorbance … with βH crystallin” value in the test with bovine βH crystallin was “Maximum absorbances”. In addition, the “protein pin assay result” value with beta amyloid is “positive”. In addition, the “absorbance … with γD crystallin” value in the test with γD crystallin [3] is recorded as “maximum absorbances”.

With WIRRPFFP [Peptide 5], the “absorbance … with CS” value in test [1] was “absorbance maxima”. Besides, the “absorbance … with ADH” value in test [2] is listed as “Maximum absorbances”. Moreover, the “absorbance … with βH crystallin” value in the test on bovine βH crystallin is reported as “Maximum absorbances”. Besides, the “protein pin assay result” value with beta amyloid is “positive”. For the same sequence, the “absorbance … with γD crystallin” value with γD crystallin [3] is “maximum absorbances”.

For ERTIPITRE, in the test with βL crystallin, the “effect on the thermal aggregation of βL crystallin (chaperone activity)” value is recorded as “slightly lower than the HG peptide”.

Consider STSLSPFYLRPPSFLRAP, for which the “effect on the thermal aggregation of βL crystallin (chaperone activity)” value in the test with βL crystallin is “weakest effect”. In addition, the “effect on the fibrillization of γD crystallin” value with γD crystallin [4] is on record as “strongest effect”.
